Source: US20120021972A1 (CADILA HEALTHCARE, published 2012)
Starred links: 1 amine or outer side, 2 acyl side, 3 side chain; linkers in the order of their positions; H or OH if unused. Non-standard residues stand in square brackets, D forms with d. No end group written: not given here. *: point of attachment. AMCB = 2-amino-5-(4-chloro-2-methylphenyl)pentanoic acid, Cc1cc(Cl)ccc1CCC[C@H](N[*:1])C(=O)[*:2]; 2CF3,4F‑APPA = 2-amino-5-(4-fluoro-2-(trifluoromethyl)phenyl)pentanoic acid; 2CF3‑APPA = 2-amino-5-(2-(trifluoromethyl)phenyl)pentanoic acid; Bip(2'-Et-4'-OMe) = CCc1cc(OC)ccc1-c1ccc(C[C@H](N)C(=O)O)cc1; Leu(5,5,5,5',5',5'-F6) = N[C@@H](CC(C(F)(F)F)C(F)(F)F)C(=O)O; Nva(5-(3,5-Me2Ph)) = Cc1cc(C)cc(CCC[C@H](N)C(=O)O)c1; 2F‑APPA = 2-amino-5-(2-fluorophenyl)pentanoic acid; αMePhe(2-F) = C[C@](N)(Cc1ccccc1F)C(=O)O; hhPhe = N[C@@H](CCCc1ccccc1)C(=O)O; aThr = C[C@H](O)[C@H](N)C(=O)O; CNB = not defined here; Ac3c = NC1(C(=O)O)CC1; Aib = CC(C)(N)C(=O)O; Moc = COC(=O)*

Key:
Assay in all cases: cell-based or functional assay
human GLP-1 receptor [1] = molecular target: T1, human GLP-1 receptor (human, UniProt P43220 24-463)
human glucagon receptor = human glucagon receptor (human, UniProt P47871 26-477)
human GLP-1 receptor [2] = molecular target: T1, human GLP-1 receptor; remark: listed apart in the source

T1 sequence (P43220 24-463): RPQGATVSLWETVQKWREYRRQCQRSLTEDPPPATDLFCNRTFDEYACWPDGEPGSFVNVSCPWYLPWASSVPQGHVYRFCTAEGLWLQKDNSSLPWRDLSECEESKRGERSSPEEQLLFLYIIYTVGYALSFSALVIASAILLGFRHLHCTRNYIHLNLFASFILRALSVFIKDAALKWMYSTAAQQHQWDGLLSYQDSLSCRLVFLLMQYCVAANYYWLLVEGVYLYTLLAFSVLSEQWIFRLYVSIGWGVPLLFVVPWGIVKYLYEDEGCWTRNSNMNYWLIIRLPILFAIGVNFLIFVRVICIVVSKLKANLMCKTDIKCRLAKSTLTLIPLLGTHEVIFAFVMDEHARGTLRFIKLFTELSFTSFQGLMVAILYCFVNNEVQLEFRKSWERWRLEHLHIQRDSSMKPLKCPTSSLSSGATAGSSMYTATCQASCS

| Binder | cAMP release, % activity, 1 nM (human GLP-1 receptor [1]) | cAMP release, % activity, 10 nM (human GLP-1 receptor [1]) | cAMP release, % activity, 100 nM (human GLP-1 receptor [1]) | cAMP release, % activity, 1 µM (human GLP-1 receptor [1]) | cAMP release, % activity, 10 µM (human GLP-1 receptor [1]) | inhibition of cAMP production, 1 nM (human glucagon receptor) | inhibition of cAMP production, 10 nM (human glucagon receptor) | inhibition of cAMP production, 100 nM (human glucagon receptor) | inhibition of cAMP production, 1 µM (human glucagon receptor) | inhibition of cAMP production, 10 µM (human glucagon receptor) | EC50, cAMP, H GLP-1 R assay (human GLP-1 receptor [2]) |
| --- | --- | --- | --- | --- | --- | --- | --- | --- | --- | --- | --- |
| H[Aib][CNB]GTFTSD[Bip(2'-Et-4'-OMe)][Nva(5-(3,5-Me2Ph))] (reading uncertain) [Seq. ID. No. 30: H-Aib-(CNB)-GTFTSD-Bip(OMe)-(ADMP)] | 38% | 78% | 86% | 95% | 98% | 22 pmol/ml/µg prt | 21 pmol/ml/µg prt | 20 pmol/ml/µg prt | 18 pmol/ml/µg prt | 18 pmol/ml/µg prt |  |
| H[Aib]QGT[αMePhe(2-F)]TSD[Bip(2'-Et-4'-OMe)][Nva(5-(3,5-Me2Ph))] [Seq. ID. No. 38: H-Aib-QGT-(α-Me-2F-Phe)-TSD-Bip(OMe)-(ADMP)] |  |  |  |  |  |  |  |  |  |  | 0.34 nM |
| Ac-H[Aib][CNB]GT[αMePhe(2-F)]TSD[Bip(2'-Et-4'-OMe)][hhPhe] (reading uncertain) [Seq. ID. No. 205: CH3CO-H-Aib-(CNB)-GT-(α-Me-2F-Phe)-TSD-Bip(OMe)-(APPA)] | 96% | 99% | 99% | 99% | 99% | 4 pmol/ml/µg prt | 2 pmol/ml/µg prt | 0 pmol/ml/µg prt | 0 pmol/ml/µg prt | 0 pmol/ml/µg prt |  |
| H[Aib][Leu(5,5,5,5',5',5'-F6)]GT[αMePhe(2-F)]TSD[Bip(2'-Et-4'-OMe)][AMCB] [Seq. ID. No. 237: H-Aib-(Hfl)-GT-(α-Me-2F-Phe)-TSD-Bip(OMe)-(AMCB)] | 96% | 99% | 99% | 99% | 99% | 21 pmol/ml/µg prt | 19 pmol/ml/µg prt | 18 pmol/ml/µg prt | 18 pmol/ml/µg prt | 16 pmol/ml/µg prt |  |
| Ac-H[Aib][CNB]GT[αMePhe(2-F)]TSD[Bip(2'-Et-4'-OMe)][2F‑APPA] (reading uncertain) [Seq. ID. No. 207: CH3CO-H-Aib-(CNB)-GT-(α-Me-2F-Phe)-TSD-Bip(OMe)-(2F-APPA)] | 40% | 81% | 89% | 96% | 99% | 0 pmol/ml/µg prt | 0 pmol/ml/µg prt | 0 pmol/ml/µg prt | 0 pmol/ml/µg prt | 0 pmol/ml/µg prt |  |
| HSQGTFTSD[Bip(2'-Et-4'-OMe)][2F‑APPA] [Seq. ID. No. 45: HSQGTFTSD-Bip(OMe)-(2F-APPA)] | 51% | 86% | 91% | 99% | 99% | 15 pmol/ml/µg prt | 12 pmol/ml/µg prt | 8 pmol/ml/µg prt | 4 pmol/ml/µg prt | 2 pmol/ml/µg prt |  |
| H[Aib]QGT[αMePhe(2-F)]TSD[Bip(2'-Et-4'-OMe)][AMCB] [Seq. ID. No. 40: H-Aib-QGT-(α-Me-2F-Phe)-TSD-Bip(OMe)-(AMCB)] | 38% | 77% | 85% | 94% | 97% | 18 pmol/ml/µg prt | 16 pmol/ml/µg prt | 12 pmol/ml/µg prt | 8 pmol/ml/µg prt | 6 pmol/ml/µg prt |  |
| H[Ac3c]QGTFTSD[Bip(2'-Et-4'-OMe)][Nva(5-(3,5-Me2Ph))] [Seq. ID. No. 22: H-(ACP)-QGTFTSD-Bip(OMe)-(ADMP)] | 99% | 99% | 99% | 99% | 99% | 17 pmol/ml/µg prt | 15 pmol/ml/µg prt | 12 pmol/ml/µg prt | 8 pmol/ml/µg prt | 6 pmol/ml/µg prt |  |
| Moc-H[Aib][CNB]GT[αMePhe(2-F)]TSD[Bip(2'-Et-4'-OMe)][hhPhe] (reading uncertain) [Seq. ID. No. 206: CH3OCO-H-Aib-(CNB)-GT-(α-Me-2F-Phe)-TSD-Bip(OMe)-(APPA)] | 39% | 80% | 86% | 95% | 98% | 0 pmol/ml/µg prt | 0 pmol/ml/µg prt | 0 pmol/ml/µg prt | 0 pmol/ml/µg prt | 0 pmol/ml/µg prt |  |
| H[Aib][CNB]GTFTSD[Bip(2'-Et-4'-OMe)][hhPhe] (reading uncertain) [Seq. ID. No. 29: H-Aib-(CNB)-GTFTSD-Bip(OMe)-(APPA)] | 96% | 99% | 99% | 99% | 99% | 20 pmol/ml/µg prt | 18 pmol/ml/µg prt | 16 pmol/ml/µg prt | 14 pmol/ml/µg prt | 12 pmol/ml/µg prt |  |
| H[Aib][Leu(5,5,5,5',5',5'-F6)]G[aThr][αMePhe(2-F)][aThr]SD[Bip(2'-Et-4'-OMe)][hhPhe] [Seq. ID. No. 228: H-Aib-(Hfl)-G-T(allo)-(α-Me-2F-Phe)-T(allo)-SD-Bip(OMe)-(APPA)] | 99% | 99% | 99% | 99% | 99% | 19 pmol/ml/µg prt | 17 pmol/ml/µg prt | 15 pmol/ml/µg prt | 14 pmol/ml/µg prt | 12 pmol/ml/µg prt |  |
| H[Ac3c]QGTFTSD[Bip(2'-Et-4'-OMe)][2CF3,4F‑APPA] [Seq. ID. No. 72: H-(ACP)-QGTFTSD-Bip(OMe)-(2CF3,4F-APPA)] | 45% | 84% | 90% | 99% | 99% | 9 pmol/ml/µg prt | 6 pmol/ml/µg prt | 5 pmol/ml/µg prt | 3 pmol/ml/µg prt | 0 pmol/ml/µg prt |  |
| H[Aib][CNB]GTFTSD[Bip(2'-Et-4'-OMe)][2F‑APPA] (reading uncertain) [Seq. ID. No. 77: H-Aib-(CNB)-GTFTSD-Bip(OMe)-(2F-APPA)] | 40% | 81% | 87% | 95% | 98% | 20 pmol/ml/µg prt | 18 pmol/ml/µg prt | 16 pmol/ml/µg prt | 14 pmol/ml/µg prt | 12 pmol/ml/µg prt |  |
| H[Aib][CNB]G[aThr][αMePhe(2-F)][aThr]SD[Bip(2'-Et-4'-OMe)][2F‑APPA] (reading uncertain; also: reduced (CH2) bonds Z9-Z10 and Z10-Z11) [Seq. ID. No. 204: H-Aib-(CNB)-G-T(allo)-(α-Me-2F-Phe)-T(allo)-SD-(CH2)-Bip(OMe)-(CH2)-(2F-APPA)] | 96% | 99% | 99% | 99% | 99% | 6 pmol/ml/µg prt | 5 pmol/ml/µg prt | 2 pmol/ml/µg prt | 0 pmol/ml/µg prt | 0 pmol/ml/µg prt |  |
| H[Aib][CNB]GTFTSD[Bip(2'-Et-4'-OMe)][2CF3‑APPA] (reading uncertain) [Seq. ID. No. 79: H-Aib-(CNB)-GTFTSD-Bip(OMe)-(2CF3-APPA)] | 62% | 94% | 99% | 99% | 99% | 6 pmol/ml/µg prt | 5 pmol/ml/µg prt | 2 pmol/ml/µg prt | 0 pmol/ml/µg prt | 0 pmol/ml/µg prt |  |
